# Laboratory results taken from PMC6536566.
# B1: VN-SAPK10 (natural protein)
# chain: MDRAALTVGPGMDMPIMHDGDRYELVRDIGSGNFGVARLMRSRADGQLVAVKYIERGDKIDENVQREIINHRSLRHPNIIRFKEVILTPTHLAIVMEYASGGELFERICNAGRFSEDEARFFFQQLISGVSYCHSMQVCHRDLKLENTLLDGSTAPRLKICDFGYSKSSVLHSQPKSTVGTPAYIAPEVLLKKEYDGKIADVWSCGVTLYVMLVGAYPFEDPDEPKNFRKTIQRILGVQYSIPDYVHISPECRDLIARIFVANPATRISIPEIRNHPWFLKNLPADLMDDSKMSSQYEEPEQPMQSMDEIMQILAEATIPAAGSGGINQFLNDGLDLDDDMEDLDSDPDLDVESSGEIVYAM
# Target: VC-OsSLAC1 (rice (Oryza sativa))
# Test: split reporter (BiFC, NanoBiT); BiFC with Venus halves (VN, VC) co-expressed in rice protoplasts; confocal microscopy; ER-mCherry as internal control, Venus signal/mCherry signal
binder,measurement,value
B1,BiFC fluorescence (Venus signal/mCherry signal) relative to VN-Hd3A with VC-SLAC1,3 fold
